Data reported in US6524826B1, “Polynucleotides encoding cortistatin polypeptides” (Human Genome Sciences, Inc., priority 1996, dated 2003).

What was measured:
[1] = test system: CA1 neuron; assay: action potential firing of a manually depolarized CA1 neuron; type: cell-based; conditions: superfusion by 1 μM; CA1 neuron depolarized to about −65 mV
Source text: (§1) For example, one can measure Cortistatin activity by manually depolarizing a CA1 neuron to about −65 mV (resting potential at about −70 mV) to elicit action potential firing. […] One can measure Population Spike (PS) amplitudes in CA1 neurons in vivo, by generating stimulus response curves and relating the PS amplitude monotonically to stimulus intensity tested at three response levels: threshold, half-maximal, and maximal. […] Another assay for polypeptides having Cortistatin activity is the effect of intracerebroventricular administration to male Sprague—Dawley rats, anesthetized with halothane, of the polypeptide in question on the sleep—wake cycle of the rat. An active polypeptide would increase the period of slow wave sleep and decrease REM sleep.

[2] = test system: CA1 neurons; assay: Population Spike (PS) amplitudes in CA1 neurons in vivo; conditions: microiontophoretic application of 1 mg ml^−1
Source text: as §1

B1: Human Cortistatin: Human Cortistatin polypeptide, brain neuropeptide; mature protein amino acid residues about 1 to about 86 in SEQ ID NO:2 (protein)
chain: MPLSPGLLLLLLSGATATAALPLEGGPTGRDSEHMQEAAGIRKSSLLTFLAWWFEWTSQASAGPLIGEEAREVARRQEGAPPQQSA
modifications: Human Cortistatin
action potential discharge [1]: abolish the action potential discharge | PS amplitudes in CA1 [2]: significantly decrease PS amplitudes
